In paper PMC3828196 (PLoS ONE, 2013):
Like-named read-outs stand apart in the source and are kept apart here.

What was measured:
Cys30 [1] = biological target: T1, Cys30 (UniProt position 49, FFSFYCPHCYQ); details: not stated; cited from earlier work
Cys30 [2] = biological target: Cys30 (UniProt position 49, FFSFYCPHCNT); details: not stated; cited from earlier work
[3] = biological target: Klebsiella pneumoniae DsbA (K. pneumoniae); assay: ITC; peptide (3 mM) titrated into 100 μM DsbA in the cell; 25 mM HEPES, 50 mM NaCl, pH 7.4, DMSO 0.8 %; 25 °C by the methods (20 °C by the footnote of Table 4); single-site binding model; apparent Kd; triplicate
Cys30 [4] = biological target: T1, Cys30; assay: UV-vis; details: 22 °C; 200 mM KCl plus buffer salts (total ionic strength not stated); 10 mM Tris, 10 mM sodium citrate, 10 mM K2HPO4, 10 mM KH2PO4, 200 mM KCl, 1 mM EDTA; Reduced KpDsbA (40 μM), with oxidised KpDsbA as reference
Cys30 [5] = biological target: Cys30 (UniProt position 49, FFSFFCPHCYQ); details: not stated; cited from earlier work
KpDsbA = assay: ITC binding of DsbB-derived peptides to KpDsbA; parameters: species or system K. pneumoniae
Description: Amidation and acetylation ensure that there are no charges on the peptide termini, as these are not present in the native DsbB loop sequence. Binding affinity was measured using a MicroCal™ Auto-iTC200 from (GE Healthcare, USA) at 25 °C. The sample cell was loaded with 200 μL of 100 μM KpDsbA or EcDsbA in 25 mM HEPES, 50 mM NaCl, pH 7.4, and DMSO 0.8 %. The peptide (3 mM) diluted in the same buffer was titrated with an initial injection of 0.5 μL into DsbA, followed by 19 consecutive injections (2.0 μL) offset by 180 s, while the solution was constantly stirred (1000 rpm). Data were fitted to a single-site binding model using MicroCal™ Origin 7.0 software (Origin 7 SR4 v7.0552). Experiments were conducted in triplicate and affinity and thermodynamic parameters are reported as means and standard deviations (Table 4).

insulin = assay: Insulin disulfide reductase activity; assay type: biochemical; details: 10 μM enzyme, 0.33 mM DTT, 2 mM EDTA, 100 mM phosphate pH 7.0, 0.131 mM insulin; OD650nm turbidity; three repeats
Description: Under mild reducing conditions, DsbA proteins can reduce the intermolecular disulfide bonds formed between insulin chains A and B [3]. The rate of disulfide bond reduction can be spectroscopically followed at OD650nm by an increase in turbidity resulting from production of the insoluble insulin chain B [20]. Samples were prepared in 1 cm cuvettes containing 10 μM of protein (KpDsbA, EcDsbA or EcDsbC), 0.33 mM DTT and 2 mM EDTA in 100 mM NaH2PO4 / Na2HPO4 titrated to pH 7.0. Catalysis was initiated by the addition of 0.131 mM insulin (I0516, Sigma-Aldrich, Australia) to the sample mixture. The assay was repeated three times and data were plotted showing standard deviations.

Escherichia coli DsbA = biological target: T2, Escherichia coli DsbA (E. coli, UniProt P0AEG4 20-208); assay: ITC; peptide (3 mM) titrated into 100 μM DsbA in the cell; 25 mM HEPES, 50 mM NaCl, pH 7.4, DMSO 0.8 %; 25 °C by the methods (20 °C by the footnote of Table 4); single-site binding model; apparent Kd; triplicate; details: both partners purified
T2 construct: also called EcDsbA; E. coli DsbA; source: purified as described for KpDsbA (BL21(DE3)pLys, Talon resin, TEV protease, Superdex75)
T2 sequence (looked up): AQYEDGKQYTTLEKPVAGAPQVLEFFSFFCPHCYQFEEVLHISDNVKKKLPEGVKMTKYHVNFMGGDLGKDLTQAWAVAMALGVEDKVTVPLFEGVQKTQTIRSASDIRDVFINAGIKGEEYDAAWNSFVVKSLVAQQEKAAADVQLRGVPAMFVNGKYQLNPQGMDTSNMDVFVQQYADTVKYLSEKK

## DsbA (SeDsbA) (Salmonella enterica serovar Typhimurium (strain SL1344))
Cys30 [1]
  pKa: 3.3

## DsbA (VcDsbA, TcpG) (Vibrio cholerae)
Cys30 [2]
  pKa: 5.1

## KpDsbB P2 loop peptide PSPFQTCD
[3]
  Kd: 16.7 µM
  dH: -11.1 kcal/mol
  stoichiometry N: 0.97

## DsbA (thiol:disulfide interchange protein DsbA), KpDsbA (Klebsiella pneumoniae (strain 342))
Cys30 [4]
  pKa: 3.2

## DsbA (EcDsbA) (Escherichia coli (K-12))
Cys30 [5]
  pKa: 3.3

## EcDsbB P2 loop peptide PSPFATCD
[3]
  Kd: 17.9 µM
  dH: -9.5 kcal/mol
  stoichiometry N: 0.93

## CC(=O)N1CCC[C@H]1C(=O)N[C@@H](CO)C(=O)N1CCC[C@H]1C(=O)N[C@@H](Cc1ccccc1)C(=O)N[C@@H](C)C(=O)N[C@H](C(=O)N[C@@H](CS)C(=O)N[C@@H](CC(=O)O)C(N)=O)[C@@H](C)O
KpDsbA; ITC (Auto-iTC200), cell 100 μM KpDsbA, peptide 3 mM, 25 mM HEPES, 50 mM NaCl, pH 7.4, DMSO 0.8 %, 25 °C in method, 20 °C in table footnote, single-site model, apparent Kd, mean ± SD, three independent experiments, read-out: Kd
  Kd: 17.9 ± 1.5 µM
KpDsbA; ITC, range stated for KpDsbA and EcDsbA with PSPFATCD and PSPFQTCD together, read-out: Kd (range over both peptides and both DsbAs)
  Kd: 11 to 18 µM

B1: EcDsbC: E. coli disulfide isomerase DsbC (AAA83074) (protein, UniProt P0AEG6 21-236, looked up)
Thiol:disulfide interchange …: DDAAIQQTLAKMGIKSSDIQPAPVAGMKTVLTNSGVLYITDDGKHIIQGPMYDVSGTAPVNVTNKMLLKQLNALEKEMIVYKAPQEKHVITVFTDITCGYCHKLHEQMADYNALGITVRYLAFPRQGLDSDAEKEMKAIWCAKDKNKAFDDVMAGKSVAPASCDVDIADHYALGVQLGVSGTPAVVLSNGTLVPGYQPPKEMKEFLDEHQKMTSGK
insulin
  insulin disulfide reductase activity: highly active

B2: KpDsbB P2 loop peptide PSPFQTCD (peptide)
peptide: Ac-PSPFQTCD-NH2
notes: P2 loop of K. pneumoniae DsbB; source: synthetic peptide
Escherichia coli DsbA
  Kd: 10.9 µM
